# Experiments:
# phospho-specific blot = settings: glycan lost; control: WT TAB3
# [1] = Flag IP, pThr404 TAB3 blot; settings: glycan lost; control: WT TAB3, IL-1β treated
protein,measurement,setting,value
TAK1 binding protein 3 (TAB3): S408A (protein) parent chain: MAQSSPQLDIQVLHDLRQRFPEIPEGVVSQCMLQNNNNLEACCRALSQESSKYLYMEYHSPDDNRMNRNRLLHINLGIHSPSSYHPGDGAQLNGGRTLVHSSSDGHIDPQHAAGKQLICLVQEPHSAPAVVAATPNYNPFFMNEQNRSAATPPSQPPQQPSSMQTGMNPSAMQGPSPPPPPPSYMHIPRYSTNPITVTVSQNLPSGQTVPRALQILPQIPSNLYGSPGSIYIRQTSQSSSGRQTPQSTPWQSSPQGPVPHYSQRPLPVYPHQQNYQPSQYSPKQQQIPQSAYHSPPPSQCPSPFSSPQHQVQPSQLGHIFMPPSPSTTPPHPYQQGPPSYQKQGSHSVAYLPYTASSLSKGSMKKIEITVEPSQRPGTAINRSPSPISNQPSPRNQHSLYTATTPPSSSPSRGISSQPKPPFSVNPVYITYTQPTGPSCTPSPSPRVIPNPTTVFKITVGRATTENLLNLVDQEERSAAPEPIQPISVIPGSGGEKGSHKYQRSSSSGSDDYAYTQALLLHQRARMERLAKQLKLEKEELERLKSEVNGMEHDLMQRRLRRVSCTTAIPTPEEMTRLRSMNRQLQINVDCTLKEVDLLQSRGNFDPKAMNNFYDNIEPGPVVPPKPSKKDSSDPCTIERKARRISVTSKVQADIHDTQAAAADEHRTGSTQSPRTQPRDEDYEGAPWNCDSCTFLNHPALNRCEQCEMPRYT,other: TAB3 S60 and S506 phosphorylation,phospho-specific blot,no change
same,other: TAB3 Thr404 phosphorylation,[1],decreases
